3 molecules from US20060270596A1 (CENTRE NATIONAL DE LA RECHERCHE SCIENTIFIQUE CNRS, published 2006) can be followed below.

To fix the notation:
B1: GST-Par4DD fusion protein (Par4 amino acids 250-342) (other)
chain: GFPRYNRDANVSGTLVSSSTLEKKIEDLEKEVVTERQENLRLVRLMQDKEEMIGKLKEEIDLLNRDLDDIEDENEQLKQENKTLLKVVGQLTR
notes: Expressed in E. coli, immobilized on glutathione sepharose; not shown: glutathione S-transferase encoded by vector pGEX-2T (Amersham Pharmacia Biotech)
B2: human THAP1 (THanatos-Associated-Protein-1), full length (other)
chain: MVQSCSAYGCKNRYDKDKPVSFHKFPLTRPSLCKEWEAAVRRKNFKPTKYSSICSEHFTPDCFKRECNNKLLKENAVPTIFLCTEPHDKKEDLLEPQEQLPPPPLPPPVSQVDAAIGLLMPPLQTPVNLSVFCDHNYTVEDTMHQRKRIHQLEQQVEKLRKKLKTAQQRCRRQERQLEKLKEVVHFQKEKDDVSERGYVILPNDYFEIVEVPA
notes: these tags are not written into the chain; also called hTHAP1; THAP1 wild type
B3: THAP1 RR/AA mutant (R171A, R172A) (other)
chain: B2 chain with R171A, R172A
notes: Gal4-BD fusion, in vitro translation product or GFP fusion according to assay; also called THAP RR/AA

Changes are numbered by the printed parent chain. In names and notes the source's numbering stands.

The target in series [1] is T1, THAP1ΔQRCRR mutant (deletion of residues 168-172) (human, UniProt Q9NVV9 1-213).
T1 sequence: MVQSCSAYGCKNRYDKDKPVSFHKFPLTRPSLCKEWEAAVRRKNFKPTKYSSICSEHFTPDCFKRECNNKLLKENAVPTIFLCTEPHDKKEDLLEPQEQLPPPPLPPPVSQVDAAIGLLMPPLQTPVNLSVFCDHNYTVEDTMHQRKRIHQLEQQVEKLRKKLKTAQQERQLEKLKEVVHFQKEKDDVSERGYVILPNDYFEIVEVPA
The series is described as follows: GST pull-down.

Series [2] has as its target T2, THAP1-N1 deletion mutant (amino acids 1-90) (human, UniProt Q9NVV9 1-90).
T2 construct: Gal4 fusion, in vitro translation product or GFP fusion according to assay; also called zinc finger domain of THAP1
T2 sequence: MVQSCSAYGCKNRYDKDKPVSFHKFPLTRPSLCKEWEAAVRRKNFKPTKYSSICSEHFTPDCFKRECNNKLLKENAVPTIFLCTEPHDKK
The series is described as follows: GST pull-down: in vitro translated 35S-labelled protein on GST-Par4DD immobilised on glutathione sepharose, SDS-PAGE, fluorography. As to the method:
(§1) THAP1 mutants were also tested in the in vitro THAP1/Par4 interaction assay. In vitro-translated THAP1 mutants were generated with the TNT-coupled reticulocyte lysate system (Promega, Madison, Wis., USA) using pGBKT7-THAP1-C1, -C2, -C3, -N1, -N2 or -N3 vector as template. 25 μl of each ³⁵S-labelled THAP1 mutant was incubated with immobilized GST or GST-Par4 protein overnight at 4° C., in the following binding buffer: 10 mM NaPO4 pH 8.0, 140 mM NaCl, 3 mM MgCl2, 1 mM dithiothreitol (DTT), 0.05% NP40, and 0.2 mM phenylmethyl sulphonyl fluoride (PMSF), 1 mM Na Vanadate, 50 mM β Glycerophosphate, 25 μg/ml chimotrypsine, 5 μg/ml aprotinin, 10 μg/ml Leupeptin. Beads were then washed 5 times in 1 ml binding buffer. Bound proteins were eluted with 2× Laemmli SDS-PAGE sample buffer, fractionated by 10% SDS-PAGE and visualized by fluorography using Amplify (Amersham Pharmacia Biotech). As expected, THAP1-C1, -C2, -C3, -and -N3 interacted with GST/Par4DD (FIG. 4B).

Series [3] deals with T3, THAP1-N2 deletion mutant (amino acids 1-166) (human, UniProt Q9NVV9 1-166).
T3 construct: Gal4 fusion, in vitro translation product or GFP fusion according to assay
T3 sequence: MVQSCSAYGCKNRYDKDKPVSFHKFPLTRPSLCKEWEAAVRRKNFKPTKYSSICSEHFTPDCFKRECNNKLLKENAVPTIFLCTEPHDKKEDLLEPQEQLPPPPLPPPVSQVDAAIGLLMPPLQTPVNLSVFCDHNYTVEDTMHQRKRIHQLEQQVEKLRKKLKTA
The description is as above. As to the method:
as §1

Series [4] concerns the molecule itself. Description: yeast two-hybrid, THAP1 bait.
The target in series [5] is T4, Par4 deletion mutant lacking the leucine zipper/death domain (Par4Δ, amino acids 1-276) (human, UniProt Q96IZ0 1-274).
T4 construct: Gal4 fusion in two-hybrid; also called Par4A; PAR4A
T4 sequence: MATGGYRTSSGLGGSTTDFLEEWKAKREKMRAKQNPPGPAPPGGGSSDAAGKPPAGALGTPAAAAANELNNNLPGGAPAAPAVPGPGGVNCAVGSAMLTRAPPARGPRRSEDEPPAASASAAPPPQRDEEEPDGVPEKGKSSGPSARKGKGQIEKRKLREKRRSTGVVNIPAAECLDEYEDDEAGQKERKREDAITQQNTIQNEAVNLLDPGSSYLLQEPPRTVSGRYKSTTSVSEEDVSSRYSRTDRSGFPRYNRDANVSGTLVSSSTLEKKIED
The series is described as follows: yeast two-hybrid.

In series [6] the target is T5, GST (glutathione S-transferase) control protein (UniProt P08515 1-218 = GST).
T5 construct: Negative control in GST pull-down assays; also called GST beads; GST alone
T5 sequence (P08515 whole entry): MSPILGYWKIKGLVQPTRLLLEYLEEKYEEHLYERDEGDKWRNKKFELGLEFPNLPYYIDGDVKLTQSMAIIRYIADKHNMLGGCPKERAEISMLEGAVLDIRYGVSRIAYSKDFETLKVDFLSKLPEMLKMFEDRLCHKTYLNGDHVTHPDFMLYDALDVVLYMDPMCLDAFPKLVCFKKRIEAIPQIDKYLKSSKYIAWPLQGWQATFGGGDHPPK
The series is described as follows: GST pull-down, negative control: in vitro translated 35S-labelled protein on GST alone immobilised on glutathione sepharose, SDS-PAGE, fluorography. As to the method:
To confirm the interaction observed in yeast, we performed in vitro GST pull down assays. Par4DD, expressed as a GST-tagged fusion protein and immobilized on glutathione sepharose, was incubated with radiolabeled in vitro translated THAP1. To generate the GST-Par4DD expression vector, Par4DD (amino acids 250-342) was amplified by PCR with primers Par4.10 (5′-[…]-3′) (SEQ ID NO: 194) and Par4.5, and cloned in frame downstream of the Glutathion S-Transferase ORF, into the BamHI site of the pGEX-2T prokaryotic expression vector (Amersham Pharmacia Biotech, Saclay, France). GST-Par4DD (amino acids 250-342) fusion protein encoded by plasmid pGEX-2T-Par4DD and control GST protein encoded by plasmid pGEX-2T, were then expressed in E. coli DH5α and purified by affinity chromatography with glutathione sepharose according to supplier's instructions (Amersham Pharmacia Biotech). The yield of proteins used in GST pull-down assays was determined by SDS-Polyarylamide Gel Electrophoresis (PAGE) and Coomassie blue staining analysis. In vitro-translated THAP1 was generated with the TNT-coupled reticulocyte lysate system (Promega, Madison, Wis., USA) using pGBKT7-THAP1 vector as template. […]

Series [7] has as its target B2. The series is described as follows: yeast two-hybrid, THAP1 bait.
The target of series [8] is B1. Description: GST pull-down.
Series [9] has as its target T6, Par4 leucine zipper/death domain (Par4DD, amino acids 250-342) (human, UniProt Q96IZ0 248-340).
T6 construct: Gal4 fusion in two-hybrid; also called myc-Par4DD
T6 chain: B1 chain
Description: yeast two-hybrid and in vivo interaction assay.

Series [10] concerns the target T7, human chemokine SLC/CCL21, mature form (amino acids 24-134) (human, UniProt O00585 24-134).
T7 construct: GenBank NP-002980; Used as Gal4 fusion in two-hybrid and as 35S-labelled in vitro translation product in pull-downs; also called SLC/6Ckine; SLC/CCL21 wild type
T7 sequence: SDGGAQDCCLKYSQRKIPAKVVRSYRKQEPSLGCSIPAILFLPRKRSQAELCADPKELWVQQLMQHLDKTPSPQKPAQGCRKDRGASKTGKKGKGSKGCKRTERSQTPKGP
The series is described as follows: yeast two-hybrid, SLC/CCL21 bait.

For series [11], the target named is T8, human prostate apoptosis response-4 (PAR4), full length (human, UniProt Q96IZ0 1-340, limits assumed).
T8 construct: Gal4-BD or Gal4-AD fusion in two-hybrid; also called Par4 wild type
T8 chain: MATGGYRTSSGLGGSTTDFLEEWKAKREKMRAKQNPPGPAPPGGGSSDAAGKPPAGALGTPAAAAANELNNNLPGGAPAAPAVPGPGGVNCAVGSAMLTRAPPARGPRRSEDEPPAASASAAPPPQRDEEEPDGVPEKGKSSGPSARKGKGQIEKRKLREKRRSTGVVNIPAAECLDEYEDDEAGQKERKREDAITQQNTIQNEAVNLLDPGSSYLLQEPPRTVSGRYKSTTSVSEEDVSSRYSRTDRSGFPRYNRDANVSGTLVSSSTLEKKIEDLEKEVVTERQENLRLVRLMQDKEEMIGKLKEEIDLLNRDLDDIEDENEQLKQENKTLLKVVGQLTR
The series is described as follows: yeast two-hybrid, Par4 wt bait. As to the method:
for mutant THAP1ΔQRCRR. The resulting PCR fragments were digested with EcoRI and BamHI, and cloned in frame downstream of the Gal4 Binding Domain (Gal4-BD) in pGBKT7 two-hybrid vector (Clontech) to generate pGBKT7-THAP1-RR/AA and -Δ(QRCRR), or downstream of the Enhanced Green Fluorescent Protein (EGFP)ORF in pEGFP.C2 vector (Clontech) to generate pEGFP.C2-THAP1-RR/AA and -Δ(QRCRR). THAP1RR/AA and THAP1ΔQRCRR THAP1 mutants were then tested in the three THAP1/Par4 interaction assays (two-hybrid assay, in vitro THAP1/Par4 interaction assay, in vivo THAP1/Par4 interaction assay) as described above for the THAP1-C1, -C2, -C3, -N1, -N2 or -N3 mutants.

As for B1, the binding result in [1], in series [2] and in series [3] was “no binding” each time.
B2: the figures for the binding result in series [4], in series [5] and in [6] were “binds”, “no binding” and “no binding”, respectively.
Consider B3, for which the binding result in series [7] is on record as “binds”; in series [8], “no binding”; in series [9], “no binding”; in [10], “binds”; in [11], “no binding”.
